# Assay results from publication PMC3792671.
# Target: RepSTK1(1-269), residues 1-269 of the rolling-circle replication initiator protein RepSTK1 of plasmid pSTK1 (Geobacillus stearothermophilus (plasmid pSTK1))
# Assay: SEC-MALS; analytical gel filtration on Superdex S75 10/300, 50 µl protein loaded, 50 mM Tris-HCl pH 7.5, 500 mM KCl; eluate through DAWN HELIOS II MALLS detector; dimer
substance,measurement,value
"RepSTK1(1-269), residues 1-269 of the rolling-circle replication initiator protein RepSTK1 of plasmid pSTK1 (domain or fragment)",stoichiometry N,2
